How the values were obtained:
[1] = biological target: GST-PIF mutant F977 to Ala
[2] = biological target: GST-PIF mutant F974 to Ala
[3] = biological target: GST-PIF mutant Y979 to Ala
[4] = biological target: GST-PIF mutant Asp978 to Ser
[5] = biological target: GST-PIF (glutathione-S-transferase fusion of the C-terminal 77 amino acids of PRK2)
[6] = biological target: GST-PIF mutant Asp978 to Ala
D978A-Region B peptide = biological target: T1, D978A-Region B peptide
T1 chain: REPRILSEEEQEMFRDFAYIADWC

[7] = biological target: T2, Region B peptide (24 residue synthetic peptide corresponding to Region B of PIF)
T2 chain: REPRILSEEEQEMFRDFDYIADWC

Sequence of GST-PIF mutant Y979 to Ala (chain, as listed by the source mutant): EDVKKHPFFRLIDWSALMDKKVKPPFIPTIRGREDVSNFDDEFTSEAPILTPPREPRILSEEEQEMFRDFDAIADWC
Sequence of GST-PIF mutant F974 to Ala (chain, as listed by the source mutant): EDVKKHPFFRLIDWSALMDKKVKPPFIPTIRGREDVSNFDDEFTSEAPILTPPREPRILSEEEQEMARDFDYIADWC
Sequence of GST-PIF mutant F977 to Ala (chain, as listed by the source mutant): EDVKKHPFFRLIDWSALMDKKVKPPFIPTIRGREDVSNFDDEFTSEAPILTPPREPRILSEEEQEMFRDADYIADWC
Sequence of GST-PIF mutant Asp978 to Ser (chain, as listed by the source mutant): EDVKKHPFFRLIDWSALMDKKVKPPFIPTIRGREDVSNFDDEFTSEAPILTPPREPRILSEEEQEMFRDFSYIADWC

B1: endogenous PDK1 of 293 cells (protein)
chain: MARTTSQLYDAVPIQSSVVLCSCPSPSMVRTQTESSTPPGIPGGSRQGPAMDGTAAEPRPGAGSLQHAQPPPQPRKKRPEDFKFGKILGEGSFSTVVLARELATSREYAIKILEKRHIIKENKVPYVTRERDVMSRLDHPFFVKLYFTFQDDEKLYFGLSYAKNGELLKYIRKIGSFDETCTRFYTAEIVSALEYLHGKGIIHRDLKPENILLNEDMHIQITDFGTAKVLSPESKQARANSFVGTAQYVSPELLTEKSACKSSDLWALGCIIYQLVAGLPPFRAGNEYLIFQKIIKLEYDFPEKFFPKARDLVEKLLVLDATKRLGCEEMEGYGPLKAHPFFESVTWENLHQQTPPKLTAYLPAMSEDDEDCYGNYDNLLSQFGCMQVSSSSSSHSLSASDTGLPQRSGSNIEQYIHDLDSNSFELDLQFSEDEKRLLLEKQAGGNPWHQFVENNLILKMGPVDKRKGLFARRRQLLLTEGPHLYYVDPVNKVLKGEIPWSQELRPEAKNFKTFFVHTPNRTYYLMDPSGNAHKWCRKIQEVWRQRYQSHPDAAVQ
phosphorylation of PKBα at Ser473 (P-473 immunoblot) [1]: prevented the phosphorylation of PKBα at Ser473 | phosphorylation of PKBα at Ser473 (P-473 immunoblot) [2]: prevented the phosphorylation of PKBα at Ser473 | phosphorylation of PKBα at Ser473 (P-473 immunoblot) [3]: prevented the phosphorylation of PKBα at Ser473 | phosphorylation of PKBα at Ser473 (P-473 immunoblot) [4]: prevented the phosphorylation of PKBα at Ser473 | activation of GST-S473D-PKBα (Thr308 phosphorylation) by PDK1 associated with GST-PIF (0.5 µg) [5]: greatly activated a GST-A473D-PKBα mutant | phosphorylation of PKBα at Ser473 (P-473 immunoblot) [6]: prevented the phosphorylation of PKBα at Ser473

B2: His-PDK1 (Myc-PDK1 with an N-terminal hexahistidine sequence, from Sf21 insect cells) (protein)
chain: B1 chain
phosphorylation of PKBα at Ser473 (P-473 immunoblot, 32P peptide mapping) (D978A-Region B peptide): far less effective at inducing this alteration in the specificity of PDK1

B3: wild type GST-PDK1 (protein)
chain: B1 chain
phosphorylation of PKBα at Ser473 [7]: The region B peptide converts the wild type GST-PDK1, but not the kinase dead GST-PDK1, into a kinase which can phosphorylate Ser473 (data not shown)

— patent publication US20070196883
